Changes are numbered by the printed parent chain.
Experiments:
[1] = biological target: T1, cynomolgus monkey RAGE (cynomolgus monkey (Macaca fascicularis), UniProt Q15109 23-404 (human entry)); test: IHC, normal monkey lung, 5 µg/ml
T1 construct: On transfected 293 cells or endogenous in monkey lung sections; also called 293-cyno monkey RAGE; RAGE in monkey lung
T1 chain: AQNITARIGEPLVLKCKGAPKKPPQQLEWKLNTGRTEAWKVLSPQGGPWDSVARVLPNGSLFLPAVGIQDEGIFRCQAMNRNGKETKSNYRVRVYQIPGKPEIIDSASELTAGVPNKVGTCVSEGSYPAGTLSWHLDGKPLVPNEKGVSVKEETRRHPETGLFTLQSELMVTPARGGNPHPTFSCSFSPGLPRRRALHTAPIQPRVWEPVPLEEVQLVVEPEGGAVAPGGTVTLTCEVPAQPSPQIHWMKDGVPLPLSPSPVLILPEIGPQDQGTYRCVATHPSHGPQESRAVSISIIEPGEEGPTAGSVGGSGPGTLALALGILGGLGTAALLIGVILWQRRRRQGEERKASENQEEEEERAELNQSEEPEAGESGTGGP
Method: (§1) Immunohistochemistry for RAGE lung tissues isolated from baboon, cynomolgus monkey, rabbit or Chinese Hamster Ovary cells over-expressing human RAGE or control CHO cells were performed using standard techniques. RAGE antibodies and rat IgG2b isotype control or mouse isotype control were used at […]. […] Following detection with HRP and Alexa Fluor 594, Alexa Fluor 488 or anti-biotin conjugated with FITC, sections were also stained with 4′-6-Diamidino-2-phenylindole (DAPI).
(§2) CHO cells stable transfected with an expression vector that expresses DNA encoding hRAGE is used as a positive control.

[2] = biological target: T2, murine RAGE, full length (mouse, UniProt Q62151 23-402); test: FACS, 293 cells infected with murine RAGE adenovirus
T2 construct: Expressed on 293 cells; also called mRAGE; 293-murine RAGE
T2 chain: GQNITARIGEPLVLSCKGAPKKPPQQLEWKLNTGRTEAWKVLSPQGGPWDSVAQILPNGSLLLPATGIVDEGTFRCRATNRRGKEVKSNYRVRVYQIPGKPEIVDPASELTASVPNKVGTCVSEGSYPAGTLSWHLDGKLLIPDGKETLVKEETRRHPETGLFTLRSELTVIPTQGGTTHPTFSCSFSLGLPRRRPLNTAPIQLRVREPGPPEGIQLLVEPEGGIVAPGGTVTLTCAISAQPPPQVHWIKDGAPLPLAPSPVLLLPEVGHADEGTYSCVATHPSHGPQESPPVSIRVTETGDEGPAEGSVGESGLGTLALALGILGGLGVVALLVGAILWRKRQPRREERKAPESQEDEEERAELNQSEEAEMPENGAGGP
Method: Human 293 cells were infected with the human and murine RAGE adenovirus. Infected cells were suspended in PBS containing 1% BSA at a density of 4×10⁴ cells/ml. Cells were incubated with 100 ul of sample (diluted immune sera, hybridoma supernatants or purified antibodies) for 30 min at 4° C. After washing, cells were incubated with PE-labeled goat, anti-mouse, IgG, F(ab′)₂ (DAKO Corporation GlostrupDenmark) for 30 min at 4° C. in the dark. Cell-associated fluorescence signals were measured by a FACScan flow cytofluorometer (Becton Dickinson) using 5000 cells per treatment. Propidium iodide was used to identify dead cells, which were excluded from the analysis.

[3] = biological target: T3, baboon RAGE (baboon (Papio cyanocephalus), UniProt Q15109 23-404 (human entry)); test: IHC, septic baboon lung, 1 µg/ml
T3 construct: On transfected 293 cells or endogenous in baboon lung sections; also called 293-baboon RAGE; RAGE in baboon lung
T3 chain: T1 chain with G347R
Method: as §1, §2

[4] = biological target: T4, human RAGE-Fc fusion protein (human, UniProt Q15109 23-344); test: ELISA, coated hRAGE-Fc
T4 construct: also called hRAGE-Fc; huRAGE-Fc; not shown: Fc domain of human IgG
Method: Antibodies were purified from hybridoma supernatants using standard procedures. Purified antibodies were evaluated for binding to soluble forms of RAGE with the use of ELISA. […] After washing and blocking with PBS containing 1% BSA and 0.05% Tween-20, 100 ul of sample (samples were in several forms: diluted immune serum, hybridoma supernatants, or purified antibodies, as indicated) was added and incubated for 1 hour at room temperature. The plates were washed with PBS, pH 7.2 and bound anti-RAGE antibodies were detected with the use of peroxidase-conjugated goat, anti-mouse IgG (H+L) (IgG) (Pierce, Rockford, Ill.) followed by incubation with the substrate TMB (BioFX Laboratories Owings Mills, Md. Laboratories). Absorbance values were determined at 450 nm in a spectrophotometer. The concentrations of monoclonal antibodies were determined with the use of peroxidase-labeled goat, anti-mouse IgG (Fcγ) (Pierce Rockford, Ill.) and a standard curve was generated by a purified, isotype-matched mouse IgG.

[5] = biological target: T5, human RAGE, full length (human, UniProt Q15109 23-404); test: IHC, CHO cells expressing hRAGE, 1 µg/ml
T5 construct: Expressed on 293 or CHO cells, or endogenous in human lung sections; also called hRAGE; cell-surface hRAGE
Method: as §1, §2

[6] = biological target: T6, murine RAGE-strep tag fusion protein (mouse, UniProt Q62151 23-343); test: ELISA, mRAGE-strep
T6 construct: also called mRAGE-strep; mRAGE-SA
T6 chain: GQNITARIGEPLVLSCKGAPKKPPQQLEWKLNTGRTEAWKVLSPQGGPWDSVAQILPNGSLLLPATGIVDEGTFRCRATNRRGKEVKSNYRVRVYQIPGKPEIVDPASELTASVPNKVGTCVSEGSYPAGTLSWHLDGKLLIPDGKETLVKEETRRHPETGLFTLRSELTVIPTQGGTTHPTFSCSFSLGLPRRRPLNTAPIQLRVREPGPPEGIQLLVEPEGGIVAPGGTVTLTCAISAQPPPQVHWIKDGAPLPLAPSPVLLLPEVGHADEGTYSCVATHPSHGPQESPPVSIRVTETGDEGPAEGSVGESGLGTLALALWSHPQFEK

binding result [1]: binds
binding result [2]: binds
binding result [3]: binds
binding result [4]: binds
binding result [5]: binds
binding result [6]: binds
B1: XT-H1 (antibody, mouse IgG1, V domains shown)
VH: QVQLKESGPGLVAPSQSLSITCTISGFSITSYGVHWVRQPPGKGLEWLVVIWSDGRTTYNSTLKSRLSISKDNSKSQVFLKMNSLQTDDTAMYYCVRHGGYFPYAMDYWGQGTSVTVSS
VL: DIQMTQSPSSLSTSLGGKVTITCKASQDINKFIAWYQHTPGKGPRLFIYYTSTLQPGIPSRFSGNGSGRDYSFSISNLEPEDIATYYCLQYDNMYTFGGGTKLEIK
notes: also called 1hRAGEP3/6; murine anti-huRAGE monoclonal antibody XT-H1

Source: patent US20070286858A1 (Pfizer, published 2007)
